In patent publication US11719696B2, “Methods and compounds for diagnosing threonyl-tRNA synthetase-associated diseases and conditions” (The University of Vermont and State Agricultural College, priority 2012, dated 2023):

Experiments:
[1] = system: chorioallantoic membrane (CAM); test: Chick chorioallantoic membrane (CAM) assay; assay type: in vivo, chicken
Experimental: Chick Chorioallantoic Membrane Assay—Fertilized chicken eggs (Sunrise Farms, Catskill, N.Y.) day 1-2 post-laying were incubated in a humidified incubator at 37° C. for 72 h. Cleaned eggs were cracked and plated in a sterile 10 cm^2 tissue culture-treated dish and incubated at 37° C. for another 7 days. On developmental day 10, 1 mm sterile gelatin sponge pieces (Surgifoam®; Johnson & Johnson Wound Management, Somerville, N.J.) were placed within the outer one-third of the membrane between large vessels. 40 μg/ml human bFGF and 2 μg/ml human VEGF were used as pro-angiogenic control compounds; 100 μg/mL retinoic acid (Sigma-Aldrich, St. Louis, Mo.) diluted in phosphate-buffered saline (PBS) was used as an angiostatic control. All compounds were applied in 10 μl to the CAM every 24 h for 72 h. Images were taken using a Leica MZ6 stereomicroscope every 24 h. Compounds were scored according to a modified version of Intensity Scoring as previously described (Ribatti, Nico et al. 2006). Briefly, each experimental condition was given a blinded score from 0-5 based on the change in the extent of vessel convergence and formation in proximity to the sponge from day 0 to day 3. Total score is averaged individual experimental condition scores from at least 15 replicates.
Fertilized chicken embryos were cultured ex-ova and, starting at developmental day 10, agents were applied daily to gelfoam sponges on the CAM. Images were recorded daily over 72 h and scored blindly according to a modified version Intensity Scoring as previously described (Ribatti, Nico, 2006). Additional details regarding methods are provided in the Methods and Materials section of Example 1.

HUVECs [2] = test: VEGF secretion by ELISA; assay type: cell-based, Human; details: purified recombinant TARS added to cell media, 24 h
Experimental: ELISA and Lactate Dehydrogenase Assays—Confluent HUVEC cultures (passage 4) were incubated at 37° C. in Clonetics® EGM®-2 modified with 0.2% fetal bovine serum with the addition of 50 ng/ml human VEGF or 50 ng/ml human TNF-α for 6 h as indicated. Culture media supernatants were tested for levels of secreted TARS protein using the Threonyl tRNA Synthetase (TARS) ELISA Kit (USCN Life Science, Wuhan, Hubei, PRC) according to manufacturer's instructions. Cell membrane integrity was confirmed using the lactate dehydrogenase assay CytoTox-ONE™ Homogeneous Membrane Integrity Assay (Promega, Madison, Wis.) according to manufacturer's instructions and reported as percent cytotoxicity relative to a lysis control. Levels of secreted VEGF were measured using the Human VEGF ELISA kit (Thermo Scientific) per manufacturer's instructions.

HUVECs [3] = test: Endothelial cell proliferation assay (alamarBlue); assay type: cell-based, Human; details: HUVECs in low serum (0.2% FBS) media
Experimental: Endothelial Cell Proliferation Assay—The […] alamarBlue® (Invitrogen) reagent was used to assess cell proliferation (Ahmed, Gogal et al. 1994). HUVECs were seeded in a 96-well dish (1×10^3 cells/well) and grown for 48 h in EGM®-2 media. Cells were incubated in 0.2% FBS EGM®-2 media or EGM®-2 complete media as indicated; VEGF (50 ng/ml) and media alone served as controls. After 48 h, 72 h, or 96 h in culture, 10 μl/well premixed alamarBlue® (Invitrogen) was added and after 3 h at 37° C. the amount of reduced alamarBlue® was quantified by fluorescence (excitation at 530 nm, emission at 590 nm) on a microplate reader (Synergy™ HT, BioTek, Winooski, Vt.).

[4] = system: Human umbilical vein endothelial cells (HUVECs); test: In vitro endothelial tube formation assay; assay type: cell-based; details: 100 nM purified recombinant protein in low-serum media (0.2% FBS), 6 h
Experimental: In vitro Tube Formation Assay—Tube formation assays were performed as described (Arnaoutova and Kleinman 2010; Cassavaugh, Hale et al., 201). Human Umbilical Vein Endothelial Cells (HUVECs) were seeded in 48-well plates (1.5×10^4 cells/well) coated with 100 μl of Matrigel™ Basement Membrane Matrix Growth Factor Reduced (BD Biosciences, San Jose, Calif.) and incubated in Clonetics® EGM®-2 complete media (Lonza, Annandale, N.J.) or EGM®-2 with reduced serum (0.2% fetal bovine serum). Cells were incubated at 37° C. for 6 h then fixed in 10% formalin. Fixed samples were imaged by phase-contrast microscopy or stained with Oregon Green 488 Phalloidin (Molecular Probes, Eugene, Oreg.) then imaged with fluorescence microscopy (2× objective). Number of tubes and tube lengths (in pixels) were quantified using the Simple Neurite Tracer (Longair, Baker et al. 2011) plug-in on ImageJ software (NIH). Statistical analysis of one-way ANOVA was performed with GraphPad Software. Multiple comparisons were performed using the Tukey Test.

B1: TARS: N-terminal His6-tagged human threonyl-tRNA synthetase expressed and purified from E. coli (protein, UniProt P26639 1-723, looked up)
Threonine--tRNA ligase 1, …: MFEEKASSPSGKMGGEEKPIGAGEEKQKEGGKKKNKEGSGDGGRAELNPWPEYIYTRLEMYNILKAEHDSILAEKAEKDSKPIKVTLPDGKQVDAESWKTTPYQIACGISQGLADNTVIAKVNNVVWDLDRPLEEDCTLELLKFEDEEAQAVYWHSSAHIMGEAMERVYGGCLCYGPPIENGFYYDMYLEEGGVSSNDFSSLEALCKKIIKEKQAFERLEVKKETLLAMFKYNKFKCRILNEKVNTPTTTVYRCGPLIDLCRGPHVRHTGKIKALKIHKNSSTYWEGKADMETLQRIYGISFPDPKMLKEWEKFQEEAKNRDHRKIGRDQELYFFHELSPGSCFFLPKGAYIYNALIEFIRSEYRKRGFQEVVTPNIFNSRLWMTSGHWQHYSENMFSFEVEKELFALKPMNCPGHCLMFDHRPRSWRELPLRLADFGVLHRNELSGALTGLTRVRRFQQDDAHIFCAMEQIEDEIKGCLDFLRTVYSVFGFSFKLNLSTRPEKFLGDIEVWDQAEKQLENSLNEFGEKWELNSGDGAFYGPKIDIQIKDAIGRYHQCATIQLDFQLPIRFNLTYVSHDGDDKKRPVIVHRAILGSVERMIAILTENYGGKWPFWLSPRQVMVVPVGPTCDEYAQKVRQQFHDAKFMADIDLDPGCTLNKKIRNAQLAQYNFILVVGEKEKISGTVNIRTRDNKVHGERTISETIERLQQLKEFRSKQAEEEF
modifications: N-terminal His6 tag
notes: N-terminal His6-tagged human threonyl-tRNA synthetase expressed and purified from E. coli
Question: Which results are given for B1?
Answer: sensitivity of the protein's CAM angiogenic effect to BC194 ([1]; protein co-applied with BC194): sensitive to BC194; CAM vessel formation / vascularization on application of protein ([1]; purified protein applied daily to sponge on CAM, 72 h): stimulated vessel formation; secretion of VEGF (ELISA) (HUVECs [2]): did not induce secretion of VEGF; cell proliferation with protein (HUVECs [3]): did not exert a significant effect; number of tube branches on addition of protein [4]: significantly increased the number of tube branches
